The values below come from patent US20200199212A1.

Test [1] deals with cynomolgus LPL on HEK293 cells (cynomolgus). Description: cell-based or functional assay.
The target in test [2] is rat LPL on HEK293 cells (rat) (UniProt Q06000). Description: cell-based or functional assay.
Chain of rat LPL on HEK293 cells (rat) (Q06000 28-474): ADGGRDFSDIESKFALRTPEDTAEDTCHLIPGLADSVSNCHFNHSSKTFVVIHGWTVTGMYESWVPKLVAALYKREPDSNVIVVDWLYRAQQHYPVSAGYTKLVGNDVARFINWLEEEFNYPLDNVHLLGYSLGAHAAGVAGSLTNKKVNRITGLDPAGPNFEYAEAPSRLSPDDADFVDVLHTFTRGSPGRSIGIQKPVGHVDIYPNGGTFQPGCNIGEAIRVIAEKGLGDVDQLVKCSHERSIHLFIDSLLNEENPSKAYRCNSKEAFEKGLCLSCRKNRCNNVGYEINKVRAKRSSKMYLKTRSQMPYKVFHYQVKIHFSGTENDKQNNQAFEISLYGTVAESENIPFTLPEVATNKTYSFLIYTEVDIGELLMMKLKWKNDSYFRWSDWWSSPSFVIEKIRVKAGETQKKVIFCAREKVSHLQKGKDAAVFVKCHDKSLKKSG

Substance “cyno ANGPTL3/8 complex (from UniProt A0A2K5UDC5 17-460)” showed an IC80 concentration (inhibition of LPL activity) in test [1] of 0.38 nM.

“rat ANGPTL3/8 complex (from UniProt F7FHP0 17-446)” displayed an IC80 concentration (inhibition of LPL activity) in test [2] of 0.81 nM.
